# US20100239676A1, “Stable Aerosolizable Suspensions of Proteins in Ethanol” (priority 2000, published 2010)
# Experiment: Stabilization of insulin suspension in 100% ethanol, activity retained by reversed phase HPLC
# Format: physicochemical
# Settings: pH 7.4
# Description: The conical tubes were then sealed with punctured parafilm, and frozen overnight at ˜−15° C. to −20° C. […] This process was started two or three days prior to the start of the experiment. […] For each sample, there were four (4) time-points prepared. […] The diluted samples were then analyzed by reversed phase HPLC method using standard techniques known to the art. The other time-points were sealed with parafilm. Four (4) different conditions were tested: (i) & (ii) samples were maintained at 37° C. with and without shaking; (iii) samples were maintained at 40° C. with shaking; and (iv) samples were maintained at room temperature with no shaking. A Labline environmental incubator/shaker was used at 37° C. and at 40° C. while shaking at 220 rpm. […] Inversion was used to gently mix.
# Percent activity retained was determined by high-performance liquid chromatography (HPLC).
substance,measurement,setting,value
"Insulin: Lyophilized human insulin, supplied from Roche Biochemical Co., suspended in 200 proof ethanol",Activity Retained (%),"2.0 months, 20 °C, shaking NA",90%
same,Activity Retained (%),"2.0 months, 40 °C, shaking 220 rpm",55%
same,Activity Retained (%),"2.5 months, 37 °C, shaking NA",93%
